Consider 1 molecule from patent US20120270271A1 (University of Washington, published 2012).

This experiment concerns the target T1, Tse2 (type VI secretion exported protein 2) with glycogen synthase kinase (GSK) tag (Pseudomonas aeruginosa PAO1, UniProt Q9I0E0 1-158).
T1 construct: Toxin as detected in the co-immunoprecipitation in P. aeruginosa lysate; it is placed last here only by default; also called PA2702; not shown: GSK tag used for detection
T1 sequence: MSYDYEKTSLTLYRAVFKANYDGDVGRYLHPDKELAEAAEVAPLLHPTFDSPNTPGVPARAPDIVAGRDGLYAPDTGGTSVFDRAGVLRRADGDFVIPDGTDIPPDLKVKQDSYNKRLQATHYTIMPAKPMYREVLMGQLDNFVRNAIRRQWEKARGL
The experiment in a line: co-immunoprecipitation from P. aeruginosa lysate with anti-VSV-G agarose beads, Western blot for GSK-tagged Tse2.

B1: Tsi2-V (type VI secretion immunity protein 2 fused to the vesicular stomatitis virus G epitope) (other)
chain: MNLKPQTLMVAIQCVAARTRELDAQLQNDDPQNAAELEQLLVGYDLAADDLKNAYEQALGQYSGLPPYDRLIEEPAS
With B1, the binding result is “binds”.
